# Test results reported in patent US20210292426A1 (Hoffmann-La Roche, published 2021).
# Substitutions are numbered along the chain they refer to. In names and notes the source's numbering stands.
# B1: P1AE1702_Fab (humanized clone 212, VH2G2a/VL2G2a) (Fab, V domains shown)
# VH: EVQLLESGGGLVQPGGSLRLSCAASGYTLTDYNMDWVRQAPGKGLEWVGDIYPNTGGTIYNQKFKGRFTISIDKSKNTAYLQMNSLRAEDTAVYYCTRFRGIHYAMDYWGQGTTVTVSS
# VL: DIQMTQSPSSLSASVGDRVTITCRASESVDNYGLSFINWFQQKPGQPPKLLIYGTSNRGSGVPSRFSGSGSGTDFTLTISSLQPEDFAMYFCQQSNEVPYTFGGGTKVEIK
# notes: Fab
# B2: P1AE1690_Fab (humanized clone 212, VH1G2a/VL1G1a) (Fab, V domains shown)
# VH: QVQLVQSGAEVKKPGASVKVSCKASGYTLTDYNMDWVRQAPGKSLEWIGDIYPNTGGTIYNQKFKGRVTMTIDKSTSTVYMELSSLRSEDTAVYYCTRFRGIHYAMDYWGQGTTVTVSS
# VL: EIVLTQSPATLSLSPGERATLSCRASESVDNYGLSFINWFQQKPGQAPRLLIYGTSNRGSGIPARFSGSGSGTDFTLTISSLEPEDFAVYFCQQSNEVPYTFGGGTKVEIK
# notes: Fab
# B3: P1AE1689_Fab (humanized clone 212, VH1G1a/VL1G1a) (Fab, V domains shown)
# VH: B2 VH with K43Q, S44G, K74T
# VL: B2 VL
# notes: Fab
# B4: P1AE1693_Fab (humanized clone 212, VH1G2a/VL1G2a) (Fab, V domains shown)
# VH: B2 VH
# VL: B2 VL with A47P
# notes: Fab
# B5: P1AE2487, CD40 (P1AE0817) x FAP (4B9) (2+1) C-terminal crossfab fusion (bispecific antibody)
# chain 1: EIVLTQSPGTLSLSPGERATLSCRASQSVTSSYLAWYQQKPGQAPRLLINVGSRRATGIPDRFSGSGSGTDFTLTISRLEPEDFAVYYCQQGIMLPPTFGQGTKVEIKSSASTKGPSVFPLAPSSKSTSGGTAALGCLVKDYFPEPVTVSWNSGALTSGVHTFPAVLQSSGLYSLSSVVTVPSSSLGTQTYICNVNHKPSNTKVDKKVEPKSC
# chain 2: DIVMTQTPLSLSVTPGQPASISCRSSQSLVHSNGNTFLHWYLQKPGQSPQLLIYTVSNRFSGVPDRFSGSGSGTDFTLKISRVEAEDVGVYFCSQTTHVPWTFGGGTKVEIKRTVAAPSVFIFPPSDEQLKSGTASVVCLLNNFYPREAKVQWKVDNALQSGNSQESVTEQDSKDSTYSLSSTLTLSKADYEKHKVYACEVTHQGLSSPVTKSFNRGEC
# chain 3: not shown
# chain 4: QVQLVQSGAEVKKPGASVKVSCKASGYSFTGYYIHWVRQAPGQSLEWMGRVIPNAGGTSYNQKFKGRVTLTVDKSISTAYMELSRLRSDDTAVYYCAREGIYWWGQGTTVTVSSASTKGPSVFPLAPSSKSTSGGTAALGCLVKDYFPEPVTVSWNSGALTSGVHTFPAVLQSSGLYSLSSVVTVPSSSLGTQTYICNVNHKPSNTKVDKKVEPKSCDKTHTCPPCPAPEAAGGPSVFLFPPKPKDTLMISRTPEVTCVVVDVSHEDPEVKFNWYVDGVEVHNAKTKPREEQYNSTYRVVSVLTVLHQDWLNGKEYKCKVSNKALGAPIEKTISKAKGQPREPQVCTLPPSRDELTKNQVSLSCAVKGFYPSDIAVEWESNGQPENNYKTTPPVLDSDGSFFLVSKLTVDKSRWQQGNVFSCSVMHEALHNHYTQKSLSLSPG
# B6: P1AE3378, CD40 (P1AE0817) x FAP (4B9) (3+1) with C-terminal crossfab fusion (bispecific antibody)
# chain 1: B5 chain 1
# chain 2: B5 chain 2
# chain 3: not shown
# chain 4: QVQLVQSGAEVKKPGASVKVSCKASGYSFTGYYIHWVRQAPGQSLEWMGRVIPNAGGTSYNQKFKGRVTLTVDKSISTAYMELSRLRSDDTAVYYCAREGIYWWGQGTTVTVSSASTKGPSVFPLAPSSKSTSGGTAALGCLVKDYFPEPVTVSWNSGALTSGVHTFPAVLQSSGLYSLSSVVTVPSSSLGTQTYICNVNHKPSNTKVDKKVEPKSCDGGGGSGGGGSQVQLVQSGAEVKKPGASVKVSCKASGYSFTGYYIHWVRQAPGQSLEWMGRVIPNAGGTSYNQKFKGRVTLTVDKSISTAYMELSRLRSDDTAVYYCAREGIYWWGQGTTVTVSSASTKGPSVFPLAPSSKSTSGGTAALGCLVKDYFPEPVTVSWNSGALTSGVHTFPAVLQSSGLYSLSSVVTVPSSSLGTQTYICNVNHKPSNTKVDKKVEPKSCDKTHTCPPCPAPEAAGGPSVFLFPPKPKDTLMISRTPEVTCVVVDVSHEDPEVKFNWYVDGVEVHNAKTKPREEQYNSTYRVVSVLTVLHQDWLNGKEYKCKVSNKALGAPIEKTISKAKGQPREPQVCTLPPSRDELTKNQVSLSCAVKGFYPSDIAVEWESNGQPENNYKTTPPVLDSDGSFFLVSKLTVDKSRWQQGNVFSCSVMHEALHNHYTQKSLSLSPG
# B7: P1AE3377, CD40 (P1AE0817) x FAP (P1AE1689) (3+1) C-terminal crossfab fusion (bispecific antibody, human IgG1, kappa, L234A L235A)
# light 1: QVQLVQSGAEVKKPGASVKVSCKASGYTLTDYNMDWVRQAPGQGLEWIGDIYPNTGGTIYNQKFKGRVTMTIDTSTSTVYMELSSLRSEDTAVYYCTRFRGIHYAMDYWGQGTTVTVSSASVAAPSVFIFPPSDEQLKSGTASVVCLLNNFYPREAKVQWKVDNALQSGNSQESVTEQDSKDSTYSLSSTLTLSKADYEKHKVYACEVTHQGLSSPVTKSFNRGEC
# light 2: B5 chain 2 with E128R, Q129K
# heavy 1: not shown
# heavy 2: B6 chain 4 with K144E, K210E, K372E, K438E
# notes: Trivalent for CD40, monovalent for FAP; knob-into-hole, P329G LALA Fc; also called CD40 x FAP (212) 3+1 crossfab
# B8: anti-FAP antibody 28H1 (antibody, V domains shown)
# VH: EVQLLESGGGLVQPGGSLRLSCAASGFTFSSHAMSWVRQAPGKGLEWVSAIWASGEQYYADSVKGRFTISRDNSKNTLYLQMNSLRAEDTAVYYCAKGWLGNFDYWGQGTLVTVSS
# VL: EIVLTQSPGTLSLSPGERATLSCRASQSVSRSYLAWYQQKPGQAPRLLIIGASTRATGIPDRFSGSGSGTDFTLTISRLEPEDFAVYYCQQGQVIPPTFGQGTKVEIK
# notes: also called FAP clone 28H1; FAP (28H1)
# B9: 4B9_Fab (Fab, V domains shown)
# VH: EVQLLESGGGLVQPGGSLRLSCAASGFTFSSYAMSWVRQAPGKGLEWVSAIIGSGASTYYADSVKGRFTISRDNSKNTLYLQMNSLRAEDTAVYYCAKGWFGGFNYWGQGTLVTVSS
# VL: B8 VL with S30T, R31S, I50N, G51V, A52G, T54R, Q93I, V94M, I95L
# notes: Fab
# Key:
# [1] = target: T1, biotinylated recombinant human FAP (human, UniProt Q12884 27-760, biotinylated (site not stated)); experiment: SPR (Biacore), Fab
# T1 construct: also called biotinylated human FAP; recombinant huFAP
# [2] = target: T2, human fibroblast activation protein (huFAP) expressed on cells (human, UniProt Q12884 1-760); experiment: flow cytometry, NIH/3T3-huFAP cells
# T2 construct: UniProt Q12884 printed; also called human FAP; hFAP
# Protocol: (§1) Plates were centrifuged 5 minutes at 1700 rpm and supernatants were flicked off. […] Afterwards the cells were washed three times with 200 μL 4° C. cold FACS buffer. […] Data analysis was performed using the FlowJo version 10 software (FlowJo LLC).
# [3] = target: T3, human CD40 expressed on cells (human, UniProt P25942 21-277); experiment: flow cytometry, primary human B cells
# T3 construct: Endogenous CD40 on Raji, Daudi and primary human B cells; human CD40 on DCs of huCD40tg mice; also called huCD40; Raji cells
# Protocol: as §1
# [4] = target: T2, human fibroblast activation protein …; experiment: flow cytometry competition on huFAP-transfected HEK cells; unlabelled antibody titrated 0.2-60 µg/ml, then AF647-labelled 4B9 (20 µg/ml) as competitor
# Protocol: Briefly, the target cells were harvested with Cell Dissociation buffer, washed with FACS Buffer (PBS+2% FCS+5 mM EDTA+0.25% sodium acide) and seeded into 96-U bottom plates (1×10^5 cells/well).
# [5] = target: T1, biotinylated recombinant human FAP; experiment: SPR (Biacore), biotinylated huFAP immobilized, Fab analyte
# Protocol: As running and dilution buffer, HBS-P+ (10 mM HEPES, 150 mM NaCl pH 7.4, 0.05% Surfactant P20) was used. A dilution series of anti-huFAP Fabs (3.7-300 nM, 1:3 dilution) was successively injected for 120s each, dissociation was monitored for 1800s at a flow rate of 30 μl/min (single cycle kinetics). The surface was regenerated by injecting 6 M guanidine-HCl, 0.25 M NaOH for 120 s. […] Curve fitting was performed using the 1:1 Langmuir binding model within the Biacore evaluation software.
binder,measurement,setting,value
B1,T ½,[1],1.8 h
B2,T ½,[1],3.05 h
B3,T ½,[1],4.57 h
B4,T ½,[1],2.68 h
B5,EC50,[2],3.7 nM
B6,EC50,[2],5.53 nM
same,EC50,[3],0.085 nM
B7,EC50,[2],4.94 nM
same,EC50,[3],0.038 nM
B8,binding result,[4],binds
B9,Kd,[1],0.279 nM
same,T ½,[1],0.917 h
same,koff,[1],0.000208 s⁻¹
same,kon,[1],747000 M⁻¹ s⁻¹
same,Kd,[5],0.43 nM
same,koff,[5],0.00078 s⁻¹
same,kon,[5],1.82e+06 M⁻¹ s⁻¹
